Laboratory results taken from patent US10947296B2, “Fusion protein Slit2D2(C386S)-HSA and use thereof in treatment of fibrotic diseases” (SUZHOU THINKING POWER BIOTECHNOLOGY CO., LTD., priority 2016, dated 2021).

Assay: Pharmacokinetic assay, single intravenous administration
Type: in vivo
Conditions: for Plasma drug concentration: IV 2 mg/kg
Method: Lines and sources: cynomolgus monkeys, Guangxi Xiongsen Primate Laboratory Animal Breeding Development Co., Ltd.
The test substance was administered in a single dose by intravenous injection.
The blood samples were collected and centrifuged to separate plasma (centrifugation conditions: 8000 rpm, 6 minutes, 2-8° C.). The contents of the label included: the subject number of Medicilon Pharmaceutical Technology (Shanghai) Co., Ltd., relevant test days, serial number of animals, date, and sampling time point. The collected plasma samples were stored in a refrigerator at ≤−65° C. before analysis. After analysis, the remaining plasma samples were stored in the refrigerator at ≤−65° C. for subsequent processing.
The biological sample analysis method and analysis of all samples were performed by the analytical laboratory of Medicilon Pharmaceutical Technology (Shanghai) Co., Ltd. Each plate in the sample analysis must contain a standard curve. At least ¾ of the points and not less than 6 non-zero concentration points (without anchor points) constituting the standard curve should meet the acceptance criteria for method validation. Each plate should also contain at least 2 sets and each set comprised at least 3 quality control samples of different concentration levels (high-concentration quality control, intermediate-concentration quality control, and low-concentration quality control).
The pharmacokinetic parameters were calculated with non-compartmental model using Phoenix pharmacokinetic software: AUC0-t, AUC0-∞, Cmax, t1/2, Tmax, C0, Cl, MRT0-∞ and Vss.

[1] = Mean of 4 animals, single IV 2 mg/kg

Question: What does the source list for “Slit2D2(C386S)-HSA: Fusion protein of the Slit2 D2 domain with C386S mutation linked to human serum albumin; amino acid sequence SEQ ID NO: 3”?
Answer: Plasma drug concentration (101-Male, day 0.125): 16151.832 ng/mL; Plasma drug concentration (101-Male, day 0.25): 15501.583 ng/mL; Plasma drug concentration (101-Male, day 0.5): 13047.082 ng/mL; Plasma drug concentration (101-Male, day 2): 11326.279 ng/mL; Plasma drug concentration (101-Male, day 5): 6773.314 ng/mL; Plasma drug concentration (101-Male, day 6): 2717.981 ng/mL; Plasma drug concentration (101-Male, day 8): 1577.577 ng/mL; Plasma drug concentration (101-Male, day 11): BLQ (Below the minimum limit of quantitation); Plasma drug concentration (101-Male, day 14): BLQ (Below the minimum limit of quantitation); Plasma drug concentration (101-Male, day 17): BLQ (Below the minimum limit of quantitation); Plasma drug concentration (101-Male, day 19): BLQ (Below the minimum limit of quantitation); Plasma drug concentration (101-Male, day 22): BLQ (Below the minimum limit of quantitation); Plasma drug concentration (101-Male, day 26): BLQ (Below the minimum limit of quantitation); Plasma drug concentration (101-Male, day 29): BLQ (Below the minimum limit of quantitation); Plasma drug concentration (101-Male, day 36): BLQ (Below the minimum limit of quantitation); Plasma drug concentration (101-Male, day 43): BLQ (Below the minimum limit of quantitation); AUC(0-t) (101-Male, single IV 2 mg/kg): 45588.03 ng·days/mL; AUC(0-∞) (101-Male, single IV 2 mg/kg): 50239.09 ng·days/mL; C0 (101-Male, single IV 2 mg/kg): 16829.36 ng/mL; CL (101-Male, single IV 2 mg/kg): 1.659 mL/h/kg; Cmax (101-Male, single IV 2 mg/kg): 16151.83 ng/mL; MRT(0-∞) (101-Male, single IV 2 mg/kg): 68.2 h; Tmax (101-Male, single IV 2 mg/kg): 3.12 h; Vss (101-Male, single IV 2 mg/kg): 0.11309 L/kg; t1/2 (101-Male, single IV 2 mg/kg): 49 h; Plasma drug concentration (102-Male, day 0.125): 12629.116 ng/mL; Plasma drug concentration (102-Male, day 0.25): 13612.467 ng/mL; Plasma drug concentration (102-Male, day 0.5): 13169.983 ng/mL; Plasma drug concentration (102-Male, day 2): 8055.924 ng/mL; Plasma drug concentration (102-Male, day 5): 4063.179 ng/mL; Plasma drug concentration (102-Male, day 6): 2215.633 ng/mL; Plasma drug concentration (102-Male, day 8): BLQ (Below the minimum limit of quantitation); Plasma drug concentration (102-Male, day 11): BLQ (Below the minimum limit of quantitation); Plasma drug concentration (102-Male, day 14): BLQ (Below the minimum limit of quantitation); Plasma drug concentration (102-Male, day 17): BLQ (Below the minimum limit of quantitation); Plasma drug concentration (102-Male, day 19): BLQ (Below the minimum limit of quantitation); Plasma drug concentration (102-Male, day 22): BLQ (Below the minimum limit of quantitation); Plasma drug concentration (102-Male, day 26): BLQ (Below the minimum limit of quantitation); Plasma drug concentration (102-Male, day 29): BLQ (Below the minimum limit of quantitation); Plasma drug concentration (102-Male, day 36): BLQ (Below the minimum limit of quantitation); Plasma drug concentration (102-Male, day 43): BLQ (Below the minimum limit of quantitation); AUC(0-t) (102-Male, single IV 2 mg/kg): 30270.94 ng·days/mL; AUC(0-∞) (102-Male, single IV 2 mg/kg): 37136.49 ng·days/mL; C0 (102-Male, single IV 2 mg/kg): 12629.12 ng/mL; CL (102-Male, single IV 2 mg/kg): 2.244 mL/h/kg; Cmax (102-Male, single IV 2 mg/kg): 13612.47 ng/mL; MRT(0-∞) (102-Male, single IV 2 mg/kg): 67.4 h; Tmax (102-Male, single IV 2 mg/kg): 6 h; Vss (102-Male, single IV 2 mg/kg): 0.15145 L/kg; t1/2 (102-Male, single IV 2 mg/kg): 51.6 h; Plasma drug concentration (103-Female, day 0.125): 13162.76 ng/mL; Plasma drug concentration (103-Female, day 0.25): 11266.684 ng/mL; Plasma drug concentration (103-Female, day 0.5): 9508.594 ng/mL; Plasma drug concentration (103-Female, day 2): 5952.269 ng/mL; Plasma drug concentration (103-Female, day 5): 3914.939 ng/mL; Plasma drug concentration (103-Female, day 6): 2155.966 ng/mL; Plasma drug concentration (103-Female, day 8): 731.688 ng/mL; Plasma drug concentration (103-Female, day 11): BLQ (Below the minimum limit of quantitation); Plasma drug concentration (103-Female, day 14): BLQ (Below the minimum limit of quantitation); Plasma drug concentration (103-Female, day 17): BLQ (Below the minimum limit of quantitation); Plasma drug concentration (103-Female, day 19): BLQ (Below the minimum limit of quantitation); Plasma drug concentration (103-Female, day 22): BLQ (Below the minimum limit of quantitation); Plasma drug concentration (103-Female, day 26): BLQ (Below the minimum limit of quantitation); Plasma drug concentration (103-Female, day 29): BLQ (Below the minimum limit of quantitation); Plasma drug concentration (103-Female, day 36): BLQ (Below the minimum limit of quantitation); Plasma drug concentration (103-Female, day 43): BLQ (Below the minimum limit of quantitation); AUC(0-t) (103-Female, single IV 2 mg/kg): 28598.53 ng·days/mL; AUC(0-∞) (103-Female, single IV 2 mg/kg): 30524.24 ng·days/mL; C0 (103-Female, single IV 2 mg/kg): 15377.93 ng/mL; CL (103-Female, single IV 2 mg/kg): 2.73 mL/h/kg; Cmax (103-Female, single IV 2 mg/kg): 13162.76 ng/mL; MRT(0-∞) (103-Female, single IV 2 mg/kg): 61.9 h; Tmax (103-Female, single IV 2 mg/kg): 3.12 h; Vss (103-Female, single IV 2 mg/kg): 0.16888 L/kg; t1/2 (103-Female, single IV 2 mg/kg): 43.7 h; Plasma drug concentration (104-Female, day 0.125): 13541.873 ng/mL; Plasma drug concentration (104-Female, day 0.25): 12289.107 ng/mL; Plasma drug concentration (104-Female, day 0.5): 10597.55 ng/mL; Plasma drug concentration (104-Female, day 2): 8296.324 ng/mL; Plasma drug concentration (104-Female, day 5): 3663.777 ng/mL; Plasma drug concentration (104-Female, day 6): 1433.272 ng/mL; Plasma drug concentration (104-Female, day 8): BLQ (Below the minimum limit of quantitation); Plasma drug concentration (104-Female, day 11): BLQ (Below the minimum limit of quantitation); Plasma drug concentration (104-Female, day 14): BLQ (Below the minimum limit of quantitation); Plasma drug concentration (104-Female, day 17): BLQ (Below the minimum limit of quantitation); Plasma drug concentration (104-Female, day 19): BLQ (Below the minimum limit of quantitation); Plasma drug concentration (104-Female, day 22): BLQ (Below the minimum limit of quantitation); Plasma drug concentration (104-Female, day 26): BLQ (Below the minimum limit of quantitation); Plasma drug concentration (104-Female, day 29): BLQ (Below the minimum limit of quantitation); Plasma drug concentration (104-Female, day 36): BLQ (Below the minimum limit of quantitation); Plasma drug concentration (104-Female, day 43): BLQ (Below the minimum limit of quantitation); AUC(0-t) (104-Female, single IV 2 mg/kg): 28034.90 ng·days/mL; AUC(0-∞) (104-Female, single IV 2 mg/kg): 31263.33 ng·days/mL; C0 (104-Female, single IV 2 mg/kg): 14922.35 ng/mL; CL (104-Female, single IV 2 mg/kg): 2.665 mL/h/kg; Cmax (104-Female, single IV 2 mg/kg): 13541.87 ng/mL; MRT(0-∞) (104-Female, single IV 2 mg/kg): 50.4 h; Tmax (104-Female, single IV 2 mg/kg): 3.12 h; Vss (104-Female, single IV 2 mg/kg): 0.13446 L/kg; t1/2 (104-Female, single IV 2 mg/kg): 37.4 h; AUC(0-t) [1]: 33123.10 ng·days/mL; AUC(0-∞) [1]: 37290.79 ng·days/mL; C0 [1]: 14939.69 ng/mL; CL [1]: 2.325 mL/h/kg; Cmax [1]: 14117.23 ng/mL; MRT(0-∞) [1]: 61.9 h; Tmax [1]: 3.84 h; Vss [1]: 0.14197 L/kg; t1/2 [1]: 45.4 h; Plasma drug concentration (Mean, day 0.125): 13871.40 ng/mL; Plasma drug concentration (Mean, day 0.25): 13167.46 ng/mL; Plasma drug concentration (Mean, day 0.5): 11580.80 ng/mL; Plasma drug concentration (Mean, day 2): 8407.70 ng/mL; Plasma drug concentration (Mean, day 5): 4603.80 ng/mL; Plasma drug concentration (Mean, day 6): 2130.71 ng/mL; Plasma drug concentration (Mean, day 8): 1154.63 ng/mL; Observation during the test (morbidity, damage, death rate, food and water supply) (single IV 2 mg/kg): No abnormal findings; ratio of AUC(0-∞) between male and female (single IV 2 mg/kg): 1.41; ratio of Cmax between male and female (single IV 2 mg/kg): 1.11; ratio of t1/2 between male and female (single IV 2 mg/kg): 1.24
